# Reference: the supplement of paper PMC10567573
# B1: IFRG15 (parent)
# chain: INRADYCPECYPDNPANRSLVLPW
# Variants of: B1
# Assay: protein stability index of a GFP-peptide fusion (GPS, HEK-293T) (PSI 1-6); higher = more stable
# Conditions: c terminus: a fixed tail appended
# 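Further: lentivirally expressed fusions sorted by FACS into six bins by GFP to DsRed ratio, PSI derived from sequencing read proportions per bin multiplied by bin number.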
row,Variant,protein stability index
1,INRADYCPECYPDNPWNRSLVLPW [A16W],1.85
2,INRADYCPECYPDNPNNRSLVLPW [A16N],2.4
3,INRADYCPECYPDNPANRSLVMPW [L22M],2.37
4,INRADYCPECYPDNPANRSLVPPW [L22P],2.93
5,INRADYCPECYPDNPANRSLVTPW [L22T],2.31
6,INRADYCPECYPDNPANRSLVGPW [L22G],2.37
7,INRADYCPECYPDNPANRSLVLPP [W24P],2.62
8,INRADYCPECYPDNPANRSLVLPC [W24C],2.31
9,INRADYCPECYPDNPANRSLVLPS [W24S],2.9
10,INRADYCPECYPDNPANRSLVLPK [W24K],2.28
11,INRADYCPECYPDNPANRSLVLPV [W24V],2.53
12,INRADYCPECYPDNPANRSLVLPN [W24N],2.46
13,INRADYCPETYPDNPANRSLVLPW [C10T],2.35
14,INRADYCPEFYPDNPANRSLVLPW [C10F],2.66
15,IHRADYCPECYPDNPANRSLVLPW [N2H],1.84
16,ICRADYCPECYPDNPANRSLVLPW [N2C],3.06
17,IRRADYCPECYPDNPANRSLVLPW [N2R],1.26
18,IKRADYCPECYPDNPANRSLVLPW [N2K],2.29
19,IDRADYCPECYPDNPANRSLVLPW [N2D],2.64
20,IIRADYCPECYPDNPANRSLVLPW [N2I],1.7
21,INRCDYCPECYPDNPANRSLVLPW [A4C],1.78
22,INRSDYCPECYPDNPANRSLVLPW [A4S],2.28
23,INRIDYCPECYPDNPANRSLVLPW [A4I],2.66
24,INRGDYCPECYPDNPANRSLVLPW [A4G],2.55

row,Variant,protein stability index
1,INRLDYCPECYPDNPANRSLVLPW [A4L],2.09
2,INRADYCPECYPDNPANRSWVLPW [L20W],1.8
3,INRADYCPECYPDNPANRSVVLPW [L20V],2.44
4,INRADYCPECYPDNPANRSMVLPW [L20M],2.67
5,INRADYCPECYPFNPANRSLVLPW [D13F],1.56
6,INRADYCPECYPSNPANRSLVLPW [D13S],1.82
7,INGADYCPECYPDNPANRSLVLPW [R3G],2.65
8,INQADYCPECYPDNPANRSLVLPW [R3Q],2.32
9,INSADYCPECYPDNPANRSLVLPW [R3S],2.2
10,INVADYCPECYPDNPANRSLVLPW [R3V],1.74
11,PNRADYCPECYPDNPANRSLVLPW [I1P],2.21
12,VNRADYCPECYPDNPANRSLVLPW [I1V],1.92
13,INRADNCPECYPDNPANRSLVLPW [Y6N],2.86
14,INRADECPECYPDNPANRSLVLPW [Y6E],2.52
15,INRADLCPECYPDNPANRSLVLPW [Y6L],2.05
16,INRADKCPECYPDNPANRSLVLPW [Y6K],2.66
17,INRADFCPECYPDNPANRSLVLPW [Y6F],2.22
18,INRADYCPECYPDIPANRSLVLPW [N14I],1.53
19,INRADYCPECYPDWPANRSLVLPW [N14W],1.03
20,INRADYCPECYPDKPANRSLVLPW [N14K],2.25
21,INRADYCPECYPDLPANRSLVLPW [N14L],1.67
22,INRAAYCPECYPDNPANRSLVLPW [D5A],1.78
23,INRAMYCPECYPDNPANRSLVLPW [D5M],1.95
24,INRAIYCPECYPDNPANRSLVLPW [D5I],1.99

row,Variant,protein stability index
1,INRAHYCPECYPDNPANRSLVLPW [D5H],2.09
2,INRAEYCPECYPDNPANRSLVLPW [D5E],1.96
3,INRAFYCPECYPDNPANRSLVLPW [D5F],2.03
4,INRAKYCPECYPDNPANRSLVLPW [D5K],1.4
5,INRADYCPECYPDNPALRSLVLPW [N17L],1.68
6,INRADYCPECYPDNPAERSLVLPW [N17E],2.14
7,INRADYCPECYPDNPAIRSLVLPW [N17I],2.25
8,INRADYCPECYPDNPAFRSLVLPW [N17F],1.54
9,INRADYCPECYPDNPATRSLVLPW [N17T],2.53
10,INRADYCPECYPDNPASRSLVLPW [N17S],2.21
11,INRADYCPECYPDNPAGRSLVLPW [N17G],2.53
12,INRADYCPECYPDNPANRTLVLPW [S19T],1.77
13,INRADYCPECYPDNPANRWLVLPW [S19W],1.99
14,INRADYCPECYPDNPANRPLVLPW [S19P],2.4
15,INRADYCPECYPDNPANRDLVLPW [S19D],2.3
16,INRADYCPECYPDNPANRNLVLPW [S19N],1.8
17,INRADYCPECYPDNWANRSLVLPW [P15W],2.19
18,INRADYCPECYPDNIANRSLVLPW [P15I],2.29
19,INRADYCPECYPDNCANRSLVLPW [P15C],2.02
20,INRADYCPECYHDNPANRSLVLPW [P12H],1.91
21,INRADYCPECYCDNPANRSLVLPW [P12C],1.69
22,INRADYCPECYMDNPANRSLVLPW [P12M],2.08
23,INRADYCPECYTDNPANRSLVLPW [P12T],1.98
24,INRADYCPECYIDNPANRSLVLPW [P12I],1.56

row,Variant,protein stability index
1,INRADYCPECIPDNPANRSLVLPW [Y11I],2.25
2,INRADYCPECHPDNPANRSLVLPW [Y11H],2.22
3,INRADYCPECYPDNPANRSLRLPW [V21R],1.83
4,INRADYCPECYPDNPANRSLSLPW [V21S],1.97
5,INRADYCPECYPDNPANRSLLLPW [V21L],2.53
6,INRADYCPECYPDNPANRSLMLPW [V21M],2.29
7,INRADYRPECYPDNPANRSLVLPW [C7R],2.73
8,INRADYKPECYPDNPANRSLVLPW [C7K],2.95
9,INRADYGPECYPDNPANRSLVLPW [C7G],2.62
10,INRADYWPECYPDNPANRSLVLPW [C7W],1.43
11,INRADYEPECYPDNPANRSLVLPW [C7E],2.5
12,INRADYIPECYPDNPANRSLVLPW [C7I],2.27
13,INRADYSPECYPDNPANRSLVLPW [C7S],3.23
14,INRADYCPECYPDNPANRSLVLNW [P23N],1.65
15,INRADYCPECYPDNPANRSLVLRW [P23R],1.58
16,INRADYCPECYPDNPANRSLVLTW [P23T],1.59
17,INRADYCPSCYPDNPANRSLVLPW [E9S],1.86
18,INRADYCPICYPDNPANRSLVLPW [E9I],1.38
19,INRADYCPTCYPDNPANRSLVLPW [E9T],1.86
20,INRADYCPHCYPDNPANRSLVLPW [E9H],1.63
21,INRADYCPMCYPDNPANRSLVLPW [E9M],1.82
22,INRADYCPDCYPDNPANRSLVLPW [E9D],2.39
